Laboratory results taken from patent US20110223127A1 (NOXXON PHARMA, published 2011).

Molecular target: T1, human [^125J]-SDF-1α (human, UniProt P48061 22-89, 125J (iodine-125) label, position not stated)
T1 construct: Bought from PerkinElmer; also called radiolabelled human SDF-1; CXCL12
Test: radioligand binding of human [125J]-SDF-1 to CHO cells expressing human CXCR4, scintillation counting (total binding, cpm); the blocker varied is the nucleic acid Spiegelmer 192-A10-001, preincubated with the ligand
Experimental: For binding assays CXCR4-expressing cells were seeded into polylysine-coated 24-well plates at a cell density of 1×10⁵ cells/well and cultivated overnight at 37° C. and 5% CO₂ in CHO-Ultra medium (Cambrex, Verviers, Belgium) containing 50 units/ml penicillin, 50 μg/ml streptomycin and 0.5 mg/ml geneticin.
For the binding experiment, the medium was removed and the cells were washed once with Hanks balanced salt solution, additionally containing 20 mM HEPES, 1 mg/ml bovine serum albumin, 0.1 mg/ml bacitracin (HBB). Then the cells were incubated in 0.2 ml HBB for 1 h at room temperature together with […] [¹²⁵J]-SDF-1 (PerkinElmer, Rodgau, Germany) and varying concentrations of Spiegelmer.
Non-specific binding was determined by adding unlabeled human SDF-1 (R & D Systems, Wiesbaden, Germany) to a final concentration of 0.5 μM to several wells.

T1 sequence (P48061 22-89): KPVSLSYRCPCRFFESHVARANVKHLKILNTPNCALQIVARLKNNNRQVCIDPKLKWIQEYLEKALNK

binding result: binds
B1: human CXCR4-receptor (receptor, UniProt P61073 1-352, looked up)
chain: MEGISIYTSDNYTEEMGSGDYDSMKEPCFREENANFNKIFLPTIYSIIFLTGIVGNGLVILVMGYQKKLRSMTDKYRLHLSVADLLFVITLPFWAVDAVANWYFGNFLCKAVHVIYTVNLYSSVLILAFISLDRYLAIVHATNSQRPRKLLAEKVVYVGVWIPALLLTIPDFIFANVSEADDRYICDRFYPNDLWVVVFQFQHIMVGLILPGIVILSCYCIIISKLSHSKGHQKRKALKTTVILILAFFACWLPYYIGISIDSFILLEIIKQGCEFENTVHKWISITEALAFFHCCLNPILYAFLGAKFKTSAQHALTSVSRGSSLKILSKGKRGGHSSVSTESESSSFHSS
notes: whole, on cells; also called SDF-1 receptor
